The values below come from patent US20110104713A1, “PRODUCTS AND PROCESSES FOR MODULATING PEPTIDE-PEPTIDE BINDING DOMAIN INTERACTIONS” (priority 2002, published 2011).

In assay [1] the target is T1, Plk-1 PBD (residues 326-603) (Homo sapiens, UniProt P53350).
T1 construct: sample cell containing 15 μM Plk-1 PBD (residues 326-603); GST (N, cleaved yes); made in house; host or cells: E. coli BL21
The assay can be described thus: Isothermal titration calorimetry of peptides with Plk-1 PBD. The assay is classed as binding. The following applies: ITC; no detectable binding for a Plk1 PBD concentration of at least 150 μM. How it is done:
For deletion mapping of the PBD, C-terminal fragments of Plk-1 were generated by PCR and cloned into the EcoRI and XhoI sites of pcDNA3.1 (Invitrogen). For production of recombinant PBD as a GST fusion in bacteria, the 326-603 fragment of Plk-1 was ligated into the EcoRI and XhoI sites of pGEX-4T (Pharmacia), transformed into BL21, and induced in late log-phase cells at 37° C. for 3.5 hours in the presence of 0.4 mM IPTG. For measurements of peptide binding affinity by ITC, GST-Plk-1 (326-603) was isolated from bacterial lysates using glutathione agarose, cleaved from GST using thrombin (10 U/mL), and purified by anion exchange chromatography (Q Sepharose HP, Pharmacia).
Peptides were synthesized by solid phase technique with two C-terminal lysines to enhance solubility, purified by reverse phase HPLC following deprotection, and confirmed by MALDI-TOF 9 Matrix-assisted laser desorption/ionisation-time of flight mass spectrometry. Some peptides contained an additional tyrosine residue to facilitate concentration determination by optical absorbance. calorimetry measurements were performed using a VP-ITC microcalorimeter (MicroCal Inc., Studio City, Calif.). Experiments involved 10 μL injections of peptide solutions (150 μM-180 μM) into a sample cell containing 15 μM Plk-1 PBD (residues 326-603) in 50 mM Tris/HCl (pH 8.1), 200 mM NaCl, 2 mM TCEP. Thirty injections were performed with a spacing of 240 s and a reference power of 25 μCal/s. Binding isotherms were plotted and analyzed using Origin Software (MicroCal Inc. Studio City, Calif.).
Peptides were synthesized by solid phase technique with two C-terminal lysines to enhance solubility. Some peptides contained an additional tyrosine residue to facilitate concentration determination by optical absorbance. Isothermal titration calorimetry was performed using a VP-ITC microcalorimeter (MicroCal Inc. Studio City, Calif.) by titration of 15-40 μM solutions of PBD proteins with 30×10 μl injections of […] peptide in a starting volume of 1.4-2.0 ml. Binding isotherms were plotted and analyzed using Origin Software (MicroCal Inc. Studio City, Calif.). Binding of in vitro translated Plk1 PBD (wild type and mutants) to bead-immobilized pTP and TP peptide libraries was performed as described previously (Elia et al., Science 299:1228-1231, 2003). pTP and TP indicate the peptide libraries biotin-Z-Gly-Z-Gly-Gly-Ala-X-X-B-X-pThr-Pro-X-X-X-X-Ala-Lys-Lys-Lys SEQ ID NO: 30 biotin-Z-Gly-Z-Gly-Gly-Ala-X-X-B-X-Thr-Pro-X-X-X-X-Ala-Lys-Lys-Lys SEQ ID NO: 31, respectively, where pThr is phosphothreonine, Z is aminohexanoic acid, X denotes all amino acids except Cys, and B is a biased mixture of the amino acids P, L, I, V, F, M, W.
A general note: ITC needs no label: the signal is the heat of the interaction.

The target of assay [2] is T2, GST-Plk-1 PBD (residues 326-603) interaction with mitotic phosphoproteins (Homo sapiens, UniProt P53350).
T2 construct: GST-Plk-1 (residues 326-603) was immobilized on glutathionine beads; made in house; host or cells: E. coli BL21
Briefly: Peptide competition of GST-Plk-1 PBD pull-down of MPM-2 mitotic phosphoproteins from HeLa lysates. The class given is binding. The following applies: 320 μM peptide, 45 minutes at 4° C., nocodazole-arrested HeLa lysates. As to the method: HeLa cells were arrested in interphase or G2/M by treatment with aphidicolin (5 μg/mL) or nocodazole (50 ng/mL), respectively, for 16 hours. Cells were lysed in 25 mM Tris/HCl (pH 7.5) containing 125 mM NaCl, 0.5% NP-40, 5 mM EDTA, 2 mM DTT, 4 μg/mL pepstatin, 4 μg/mL aprotinin, 4 μg/mL leupeptin, 1 mM Na3VO4, 50 mM NaF, and […] microcystin, and 150 μgs of lysate incubated with 10 μL of glutathione agarose beads containing 2-5 μg of GST-Plk-1 (residues 326-603), GST-Pin1, or GST for 30 minutes at 4° C. Beads were washed four times with lysis buffer. Precipitated proteins were eluted in sample buffer and detected by blotting with monoclonal MPM-2 (Upstate Biotechnology, Inc.) or polyclonal anti-Cdc25C (Santa Cruz Biotechnology, Santa Cruz, Calif.). For peptide competition experiments, GST-Plk-1 (residues 326-603) was immobilized on glutathionine beads and preincubated with 320 μM of PoloBoxtide-optimal, −8T, or −7V for 45 minutes at 4° C. For binding experiments involving mutant cdc25C, HeLa cells were transfected with wild-type and mutated versions of HA-tagged Cdc25C in pECE using Superfect (Qiagen, Valencia, Calif.). Nocodazole (50 ng/mL) was added seventeen hours after transfection and cells incubated for an additional 14 hours to arrest them in G2/M. Point mutations of Cdc25C were constructed using the QuickChange site-directed mutagenesis system (Stratagene) and verified by DNA sequencing.

T2 sequence (P53350 326-603): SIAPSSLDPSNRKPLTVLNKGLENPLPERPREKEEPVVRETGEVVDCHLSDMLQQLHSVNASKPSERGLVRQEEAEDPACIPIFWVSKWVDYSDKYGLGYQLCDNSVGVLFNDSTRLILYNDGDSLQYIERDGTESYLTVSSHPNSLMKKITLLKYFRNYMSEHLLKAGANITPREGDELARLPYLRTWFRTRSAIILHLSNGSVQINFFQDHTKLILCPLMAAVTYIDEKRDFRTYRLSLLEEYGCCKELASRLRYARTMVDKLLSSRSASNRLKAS
T1 sequence (P53350 326-603): as above

For the substance “MAGPMQ-S-T-P-LNGAKK (MAGPMQSTPLNGAKK) [PoloBoxtide-8T]”, the “peptide binding to Plk-1 PBD by ITC (in words)” value in assay [1] was “complete loss of binding”. Further, the “effect of peptide pre-incubation on GST-Plk-1 PBD binding of MPM-2 epitopes” value is “not” in assay [2] and “had no effect” in assay [2] (listed as 8T).
